In PMC6974248, ““Yellow” laccase from Sclerotinia sclerotiorum is a blue laccase that enhances its substrate affinity by forming a reversible tyrosyl-product adduct” (PLoS ONE, 2020):

Key:
blue laccase = target: T1, blue laccase (Sclerotinia sclerotiorum, UniProt A7EM18); test: UV-vis after desalting; assay type: binding; details: covalent, adduct of the radical product formed on turnover, site not identified; 25 mM MES pH 6.3
T1 construct: gene SS1G_06365; native, secreted, purified from culture medium; ~66 kDa glycoprotein; blue form (phenolics removed by preparative native PAGE or low-coloured medium)
T1 sequence (A7EM18 28-577): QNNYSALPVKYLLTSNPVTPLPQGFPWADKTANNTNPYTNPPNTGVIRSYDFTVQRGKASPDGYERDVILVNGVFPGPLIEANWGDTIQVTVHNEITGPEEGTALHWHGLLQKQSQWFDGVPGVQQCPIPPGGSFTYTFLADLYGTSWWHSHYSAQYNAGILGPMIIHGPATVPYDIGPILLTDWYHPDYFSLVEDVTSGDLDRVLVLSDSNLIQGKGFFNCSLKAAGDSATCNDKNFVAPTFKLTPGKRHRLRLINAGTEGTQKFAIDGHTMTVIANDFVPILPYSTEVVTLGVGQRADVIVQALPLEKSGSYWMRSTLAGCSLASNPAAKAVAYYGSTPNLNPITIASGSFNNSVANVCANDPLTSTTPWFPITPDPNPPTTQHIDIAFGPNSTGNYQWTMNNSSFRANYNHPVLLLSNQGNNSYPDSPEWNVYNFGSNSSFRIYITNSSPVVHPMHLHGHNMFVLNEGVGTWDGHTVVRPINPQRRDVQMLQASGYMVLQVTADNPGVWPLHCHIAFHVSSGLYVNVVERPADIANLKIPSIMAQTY

purified protein [1] = substrate: CCn1c(=NN=c2sc3cc(S(=O)(=O)O)ccc3n2CC)sc2cc(S(=O)(=O)O)ccc21; test: purified protein; assay type: biochemical, Sclerotinia sclerotiorum; details: 50 mM acetate pH 4, relative SD 5–20%
purified protein [2] = substrate: Cc1cc(-c2cc(C)c(N)c(C)c2)cc(C)c1N; test: purified protein; assay type: biochemical, Sclerotinia sclerotiorum; details: 50 mM acetate pH 4, relative SD 5–20%

Cc1cc(-c2cc(C)c(N)c(C)c2)cc(C)c1N [TMB, 3,3’,5,5’-tetramethylbenzidine]
UV-vis after desalting (blue laccase): purple with ABTS, red with guaiacol, orange with TMB

COc1ccccc1O [guaiacol]
UV-vis after desalting (blue laccase): purple with ABTS, red with guaiacol, orange with TMB

B1: yellow laccase (Sclerotinia sclerotiorum 1980 UF-70) (protein)
chain: T1 sequence (A7EM18 28-577)
notes: native, secreted, purified from culture medium; ~66 kDa; as-isolated yellow form, natural covalent phenolic adduct of the same protein as P1
Km (purified protein [1]): 14.1 µM | kcat (purified protein [1]): 5.7 s⁻¹ | Km (purified protein [2]): 2.70 µM | kcat (purified protein [2]): 3.1 s⁻¹
